Assay results from article PMC5339894, “G196 epitope tag system: a novel monoclonal antibody, G196, recognizes the small, soluble peptide DLVPR with high affinity” (Scientific Reports, 2017).
“Also recorded” adds a separate entry of the source.

Assays:
[1] = test system: Atf1-G196-GFP at the tdh1 promoter; assay: chromatin immunoprecipitation (ChIP) in fission yeast; format: cell-based; conditions: promoter of tdh1 gene (CRE consensus site); 3 μL mAb G196; qPCR
Method: Yeast cells were grown in YES medium at 30 °C to mid-log phase. After formaldehyde crosslinking and quenching, 1 × 10^8 cells were harvested to obtain 2 mL of soluble input extract. M-280 anti-mouse sheep antibody-conjugated magnetic beads (112-02, ThermoFisher Scientific) were used for immunoprecipitation: 200 μL of the beads were washed twice with extraction buffer (50 mM HEPES-KOH (pH 7.5), 140 mM NaCl, 1 mM EDTA, 1% Triton X-100, and 0.1% sodium deoxycholate), and then incubated in 1 mL of extraction buffer containing 3 μL of mAb G196 for 1 h at 4 °C. The beads were again washed twice with extraction buffer to remove unbound antibodies and incubated for 1 h with 800 μL of input extract at 4 °C. The relative concentrations of the target sequences were determined using SYBR Premix ExTaq (RR041A, TaKaRa Bio, Shiga, Japan) and a Thermal Cycler Dice Real Time System TP800 (TaKaRa Bio), according to the manufacturer’s instructions. The primers for detecting the −1 kb region were 5′-[…]-3′ and 5′-[…]-3′, and for the tdh1 CRE region the primers were 5′-[…]-3′ and 5′-[…]-3′.

[2] = test system: FLAG-HA-Emerald GFP tagged with C-terminal G196-tag (FHG-G196); assay: immunoprecipitation (IP) from HeLa cell extracts; format: cell-based, human
From the text: (§1) Short peptides and paired mAbs specific for the sequences of interest are powerful and irreplaceable tools for scientific research. To ascertain the possible versatility of G196-tag as a versatile fusion tag, we generated several human and yeast expression constructs in which the G196-tag was fused to reporter proteins. First, we expressed FLAG- and HA-tagged Emerald GFP (hereafter abbreviated FHG) as a reporter protein, C-terminally fused with a G196-tag (6P12, SDLVPRGSP) in HeLa cells.
(§2) Figure 5 Application of the G196 epitope tag system for scientific research. (a) Western blot and immunoprecipitation (IP) analysis of FLAG-HA-Emerald GFP (FHG) tagged with C-terminal G196-tag in HeLa cells using mAb G196. HeLa cells were transfected with FHG/pcDNA3 or FHG-G196/pcDNA3. After incubation for two days, the cells were lysed and subjected to Western blotting with anti-FLAG (M2) or G196 mAbs (left panel). These lysates were immunoprecipitated with anti-FLAG (M2) (lanes 7, 8) or G196 (lanes 9, 10) mAbs and subjected to Western blotting with anti-FLAG polyclonal antibody (right panel). (b) Immunofluorescence of GFP- and G196-tagged nuclear protein in HeLa cells using mAb G196. HeLa cells were transfected with FHG-G196-NAC1/pcDNA3. After incubation for two days, the cells were fixed and incubated with mAb G196 and anti-GFP polyclonal Ab, then stained with Alexa-594 anti-mouse and Alexa-488 anti-rabbit secondary antibodies. (c) Western blot and chromatin immunoprecipitation (ChIP) analysis of Atf1-G196-GFP in fission yeast using mAb G196. A DNA fragment containing the transcription factor atf1 gene fused with the G196 epitope-GFP gene was replaced with the genomic atf1 gene. Protein extracts were separated by SDS-PAGE and detected with mAb G196 and anti-GFP polyclonal antibody (left panel). GFP-Iws1 expressing cells were used as a negative control. Asterisk indicates non-specific band also detected using the second Ab alone. Schematic representation of the tdh1 locus (right upper panel). The promoter of the tdh1 gene harbors a CRE consensus site. […]

[3] = test system: FHG-G196-NAC1; assay: immunofluorescence of GFP- and G196-tagged nuclear protein in HeLa cells; format: cell-based, human; conditions: FHG-G196-NAC1, Alexa-594 / Alexa-488 secondary
Method: as §2, with “GFP-Iws1 expressing cells were used as a negative control.” left out, “alone.” for “alone. Schematic representation of the tdh1 locus (right upper panel). The promoter of the tdh1 gene harbors a CRE consensus site.”

[4] = test system: Atf1-G196-GFP; assay: Western blot analysis of fission yeast extracts; format: cell-based; conditions: C-terminally 3 × G196-tagged Atf1, mAb G196 1:2000
From the text: C-terminal tagging of the atf1 gene (Supplementary Fig. 1) was accomplished using the G196t2 primer. This primer contains a sequence homologous to a portion of the atf1 coding sequence, a sequence for 3 × G196-tag, and a sequence homologous to another primer, com5. In the first PCR step, two sequences flanking the translational stop codon of the atf1 gene were amplified with the primers t1 and G196t2, and with the primers t3 and t4, using the genomic DNA as a template. The GFP-kanMX cassette was also amplified with the primers com5 and com6, using pFA6a-GFP(S65T)-kanMX as a template. The three PCR products were fused together in the second PCR step with the primers t1 and t4 to produce a DNA fragment for homologous recombination.
Cells (1 × 10^8) growing exponentially in YES medium at 30 °C were harvested to obtain whole cell extracts as described elsewhere. Samples were resolved by SDS-PAGE on 7% gels, semi-dry blotted to PVDF membranes, and detected using an ECL detection system (PerkinElmer, Waltham, MA, USA). Mouse mAb G196 (1:2000) and anti-GFP rabbit polyclonal antibody (1:1000) were used as primary antibodies. HRP-conjugated goat anti-mouse antibody (1:5000, Rockland Immunochemicals) and anti-rabbit antibody (1:2000, Jackson ImmunoResearch Laboratories) were used as secondary antibodies.

[5] = test system: N- and C-terminally G196-tagged protein; assay: detection of N- and C-terminally G196-tagged protein; conditions: this study and refs. 22 and 23
[6] = test system: FLAG-HA-Emerald GFP tagged with C-terminal G196-tag (FHG-G196); assay: Western blot analysis of HeLa cell extracts; format: cell-based, human
From the text: as §1
Figure 5 Application of the G196 epitope tag system for scientific research. (a) Western blot and immunoprecipitation (IP) analysis of FLAG-HA-Emerald GFP (FHG) tagged with C-terminal G196-tag in HeLa cells using mAb G196. HeLa cells were transfected with FHG/pcDNA3 or FHG-G196/pcDNA3. After incubation for two days, the cells were lysed and subjected to Western blotting with anti-FLAG (M2) or G196 mAbs (left panel). These lysates were immunoprecipitated with anti-FLAG (M2) (lanes 7, 8) or G196 (lanes 9, 10) mAbs and subjected to Western blotting with anti-FLAG polyclonal antibody (right panel). (b) Immunofluorescence of GFP- and G196-tagged nuclear protein in HeLa cells using mAb G196. […] Protein extracts were separated by SDS-PAGE and detected with mAb G196 and anti-GFP polyclonal antibody (left panel). […] Asterisk indicates non-specific band also detected using the second Ab alone. […]

B1: mAb G196: mouse mAb (IgG1) raised against GST protein bacterially expressed using the pGEX-2T vector (antibody, V domains shown)
VH: QVKLQESGAELVKPGASVKLSCKASGYTFTNYWMHWVKLRPGQGFEWIGEINPSNGGSNYNEKFKRKATLTVDKSSSTAYMQLSSLTSEDSAVFYCSIWDSYFDYWGQGTTLTVSS
VL: NIVMTQSPKSMSMSVGERVTLTCKASENVVTYVSWYQQKPEQSPKLLIYGASNRYTGVPDRFTGSGSATDFTLTISSVQAEDLADYHCGQGYSYPYTFGGGTKLEIK
ChIP of Atf1 [1]: enriched the Atf1 protein at the promoter of the tdh1 gene | immunoprecipitation of reporter lacking G196-tag ([2]; HeLa cell extracts, FHG (lane 9)): did not immunoprecipitate reporter protein lacking the G196-tag | immunoprecipitation of FHG-G196 ([2]; HeLa cell extracts, Western blot with anti-FLAG polyclonal antibody (lane 10)): efficiently immunoprecipited reporter protein | immunoprecipitation of FHG-G196 compared with anti-FLAG ([2]; lane 10 versus lane 8): comparable to that of FLAG immunoprecipitates | immunofluorescence detection of nuclear reporter protein NAC1 [3]: successfully detected the nuclear reporter protein | detection of Atf1 by Western blot [4]: detected the Atf1 protein | detection of N- and C-terminally tagged protein [5]: detected both N- and C-terminally G196-tagged protein | detection of FHG (without G196-tag) by Western blot ([6]; HeLa cells transfected with FHG (lane 3)): not detected | detection of FHG-G196 by Western blot ([6]; HeLa cells transfected with FHG-G196, two days (lanes 2, 4)): detected as a single band; also recorded: as a single band at the proper molecular weight
